The record followed here is patent US20200138870A1, “RECREATION OF PANCREATIC NICHE ALLOWS FOR NOVEL METHODS FOR HUMAN, MATURE BETA DERIVATION FROM PLURIPOTENT STEM CELLS” (Baylor College of Medicine, priority 2016, published 2020).

Holding throughout (format): cell-based, human
One experiment relates to AP-1. Description: Dual-pathway multicolor luciferase assay, AP-1 reporter. The conditions noted are these: 500 ng/ml WNT5A, after 24h. The source says:
(§1) The dual-pathway luciferase reporter vector was generated using the GoldenBraid2.0 Assembly Platform (Sarrion-Perdigones et al., 2011; Sarrion-Perdigones et al., 2013). Briefly, transcriptional units comprising the promoter elements, the CDS of the corresponding luciferase and the bovine growth hormone terminator were first assembled, and then these were latter combined in successive rounds of assembly to build the multigenic vector used in this assay. For the multicolor luciferase assay, H1-derived EPs were first dissociated into 96-well plates using method previously described and incubated overnight to allow cell attachment. […] At the determined harvesting point, culture media was removed and wells were washed with PBS. […] 10 μL of LARII reagent was added with the built-in injectors and after 2 seconds, the total light and the BP filtered light emitted by the FLuc and RedF mixture were measured for 1 second. Finally, 15 μL of Stop & Glo® reagent were injected and after 4 seconds the emitted light by Renilla luciferase was measured. The activity corresponding to FLuc and RedF that were simultaneously measured after the LARII reagent was added were calculated according to the method proposed by Nakayima et al (Nakajima et al., 2005) that is adjusted to this particular assay and explained in FIG. 7D.

The test system of experiment [1] is hESC-derived EPs. Description: qPCR-based gene expression analysis of WNT5A-treated EPs. Here is the method:
Total RNA was isolated using TRIzol (Thermo Fisher Scientific) according to the manufacturer's protocol. DNAase (Qiagen) treatment was performed to remove genomic DNA. cDNA was synthesized using iScript (Biorad) by using […] of RNA. For qPCR, KAPA SYBR FAST (Kapa Biosystems) and Connect CFX light cycler (Biorad) for PCR reaction (<40 cycles were used). Primers were designed using qPrimerDepot in such way that the PCR product spans across exons junction. Primer specificity was checked using CFX manager software v3.1 […] and PCR product electrophoresis. Threshold data were analyzed by CFX manager software v3.1 using Comparative Ct relative quantitation method with TBP as internal control.

The test system of experiment [2] is hESC-derived EPs. Description: Growth factor treatment of hESC-derived EPs for 3 days, immunofluorescence quantification of marker-positive cells. Here is the method: hESC, ISL1-EGFP Hues8 and H1, were maintained under a feeder-free system on Geltrex (Invitrogen) in TeSR-E8 media (Stemcell Technologies). Cells were passaged at 70-80% confluence using TrypLE (Invitrogen). After dissociation, cells were seeded in TeSR-E8 media+10 μM Y-27632 for 24h. Differentiation was started when cells were 90% confluent. The following media and growth factors/small molecules (see also Table 3) were used: Day1: MCDB-131 media with 0.1% BSA+10 mM glucose+ActivinA and CHIR99021. Day2-3: MCDB-131 media+0.1% BSA+10 mM glucose+ActivinA. Day4-5: MCDB-131+0.1% BSA, 10 mM glucose, VitC+KGF. Day6-9: MCDB-131 2% BSA+5.5 mM glucose+Vit.C+ITS (Invitrogen)+ActivinA+KGF+RA+SANT-1+Noggin. Day10-12: MCDB-131+2% BSA+5.5 mM glucose+VitC+ITS+SANT-1+Noggin+PdBU. Day13-15: MCDB-131+2% BSA+5.5 mM glucose+VitC+ITS+Noggin+AlK5i. EPs were dissociated and seeded as 25,000 cells/well on Geltrex-coated 96-well plates in DMEM media (Invitrogen) with B27 Supplement (Thermo Fisher Scientific), later called B27 media, supplemented with 10 µM Y-27632 for 24h. Growth factors (Table 3) were added to B27 media, at two concentrations, and tested on EPs for 3 days. After 3 days, cells were PBS washed, fixed with 4% PFA/PBS for 20 min at room temperature (RT), washed twice with PBS and stained.
Cells were incubated with 5% donkey serum (Jackson ImmunoResearch Laboratories) in PBST (PBS+0.1% Triton-X) for 30 min to avoid nonspecific binding of the antibody and to permeabilize the cells. Primary antibodies, diluted in 5% donkey serum in PBST, were then added and incubated at 4° C. overnight with shaking. After primary antibody incubation, cells were washed 3 times with PBST and secondary antibodies conjugated with Alexa-Fluor Dyes (Jackson ImmunoResearch Laboratories) and diluted in 5% donkey serum in PBST were added to the cells for 30 min at RT. Then, cells were thrice washed with PBST and nuclei were stained with Dapi (Roche Diagnostics). For imaging, Leica DMI6000 or confocal Leica TCS SPE was used. Images were initially processed by LAS X software and then further analyzed and quantified using ImageJ software (NIH, W Rasband, http://rsb.info.nih.gov/ij) using cell counter plug-in. Typically, at least 5 randomly selected images were counted per condition.

The subject of a further experiment is 3D-EPs. Description: WNT5A treatment in 3D SC-β cell differentiation protocol (Pagliuca et al., 2014). The conditions noted are these: 4 days of treatment, compared to INS upregulation at 12-day in original protocol. Here is the method:
SC-β cells were generated using the protocol as previously described (Pagliuca et al., 2014). WNT5A were introduced into the differentiation from EP stage (EN in the original paper) together with T3, ALK5i in CMRL media for the first two days and then change into T3, ALK5i in CMRL media from the third day. Samples were collected at the 4th day and 12th day counting from EP stage and were fixed with 4% PFA and thrice washed with PBS for 10 min. For whole-mount staining, samples were first blocked with 5% donkey serum in PBST overnight and incubated with antibodies overnight as described above.

In a further experiment the test system is Smad. Description: Dual-pathway multicolor luciferase assay, Smad reporter. The conditions noted are these: 500 ng/ml WNT5A, at 36 and 48h.
Description: as §1

B1: WNT5A: secreted growth factor from the human pancreatic niche (R&D), used at 100 or 500 ng/ml (protein)
chain: IIGAQPLCSQLAGLSQGQKKLCHLYQDHMQYIGEGAKTGIKECQYQFRHRRWNCSTVDNTSVFGRVMQIGSRETAFTYAVSAAGVVNAMSRACREGELSTCGCSRAARPKDLPRDWLWGGCGDNIDYGYRFAKEFVDARERERIHAKGSYESARILMNLHNNEAGRRTVYNLADVACKCHGVSGSCSLKTCWLQLADFRKVGDALKEKYDSAAAMRLNSRGKLVQVNSRFNSPTTQDLVYIDPSPDYCVRNESTGSLGTQGRLCNKTSEGMDGCELMCCGRGYDQFKTVQTERCHCKFHWCCYVKCKKCTEIVDQFVCK
Consider B1, for which the “AP-1 activity (in words)” value in the experiment with AP-1 is recorded as “activates”. In addition, in the experiment on hESC-derived EPs [1] (5-day WNT5A-treated cells), the “GCG expression compared to untreated cells (in words)” value is on record as “decreased”; the “INS, CHGA, ONECUT1 and PCSK2 expression compared to untreated cells (in words)” value is recorded as “increased”. Also, in the experiment with hESC-derived EPs [1] (5 day-WNT5A treatment), the “BMP3, BMP4 and BMP6 expression by qPCR (in words)” value is given as “downregulation”; the “BMP inhibitor BMPER expression by qPCR (in words)” value is “upregulation”. Moreover, the “number of INS+ cells” value in the experiment with hESC-derived EPs [2] (100 ng/ml of WNT5A (30% in B27)) came to 39%. Also, the “number of INS+ cells” value in the experiment on hESC-derived EPs [2] (500 ng/ml WNT5A (30% in B27)) is recorded as 60%. In the experiment with hESC-derived EPs [2] (3-day EP treatment, vs untreated control), the “decrease in the number of GCG+ cells” value was determined as 3 fold. In addition, in the experiment with hESC-derived EPs [2] (3 days treatment of EPs), the “average increase in number of cells positive for all test markers” value came out at 5 fold; the “numbers of ISL1-eGFP, CHGA+, INS+ and C-peptide+ cells over untreated controls (in words)” value is listed as “increased”. For the same molecule, in the experiment with hESC-derived EPs [2] (WNT5A in different combinations at 500 ng/ml, 3 days), the “number of INS+ cells among all factors and combinations tested (in words)” value is “consistently and most significantly increased”. For the same molecule, in the experiment with hESC-derived EPs [2] (growth factors alone or in combination), the “fold increase in number of ins+ cell generate from hESCs” value came to 6 fold. Further, in the experiment with 3D-EPs, the “number of INS+ cells in independent 3D protocol (in words)” value is “increasing the number of INS+ cells”. The “Smad activity (in words)” value in the experiment on Smad was “decreases”.
